# Data published in patent US10227388B2, “Peptides and combination of peptides for use in immunotherapy against non-small cell lung cancer and other cancers” (immatics biotechnologies GmbH, priority 2015, dated 2019).
# Target: HLA-A*02:01 (Homo sapiens, UniProt P04439, D140Y/D185E/D98H/E176V/E277Q/G131W/G231S/I119V/I121R/I166T/I218V/L300P/L318F/N151K/N90K/P208A/P217A/Q86G/Q94H/R138H/R169H/T345S)
# Test: MHC binding assay (UV-ligand exchange, ELISA, peptide exchange yield)
# Conditions: binding of HLA-class I restricted peptides to HLA-A*02:01
# Summary of the method: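 Peptide–HLA-A*02:01 complexes made by UV-ligand exchange of a UV-cleavable peptide for the test peptide. Exchange yield measured by ELISA: 100-fold diluted monomers captured on streptavidin, 1 h at 37° C., detected with HRP anti-β2m and TMB, absorbance at 450 nm.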
substance,measurement,value
125 (VQIHQVAQV; listed as Homo sapiens) [compound 125],"Peptide exchange (MHC class I binding score, peptide exchange yield)",″+++″ (≥50% = +++)
178 (ALTEIAFVV; listed as Homo sapiens) [compound 178],"Peptide exchange (MHC class I binding score, peptide exchange yield)",″++++″ (≥75% = ++++)
201 (RLVDYLEGI; listed as Homo sapiens) [compound 201],"Peptide exchange (MHC class I binding score, peptide exchange yield)",″+++″ (≥50% = +++)
46 (ILTEENIHL; listed as Homo sapiens) [compound 46],"Peptide exchange (MHC class I binding score, peptide exchange yield)",″+++″ (≥50% = +++)
302 (ALLQEGEVYSA; listed as Homo sapiens) [compound 302],"Peptide exchange (MHC class I binding score, peptide exchange yield)",″+++″ (≥50% = +++)
344 (YLQDQHLLLTV; listed as Homo sapiens) [compound 344],"Peptide exchange (MHC class I binding score, peptide exchange yield)",″+++″ (≥50% = +++)
501 (LLDPNVKSIFV; listed as Homo sapiens) [compound 501],"Peptide exchange (MHC class I binding score, peptide exchange yield)",″+++″ (≥50% = +++)
138 (YQYPRAILSV; listed as Homo sapiens) [compound 138],"Peptide exchange (MHC class I binding score, peptide exchange yield)",″+++″ (≥50% = +++)
412 (YLDDLNEGVYI; listed as Homo sapiens) [compound 412],"Peptide exchange (MHC class I binding score, peptide exchange yield)",″++″ (≥20% = ++)
458 (SLIDKLYNI; listed as Homo sapiens) [compound 458],"Peptide exchange (MHC class I binding score, peptide exchange yield)",″++″ (≥20% = ++)
618 (VLFDSESIGIYV; listed as Homo sapiens) [compound 618],"Peptide exchange (MHC class I binding score, peptide exchange yield)",″+++″ (≥50% = +++)
188 (GLFPVTPEAV; listed as Homo sapiens) [compound 188],"Peptide exchange (MHC class I binding score, peptide exchange yield)",″+++″ (≥50% = +++)
197 (ALGPEGGRV; listed as Homo sapiens) [compound 197],"Peptide exchange (MHC class I binding score, peptide exchange yield)",″++″ (≥20% = ++)
349 (SLTEYLQNV; listed as Homo sapiens) [compound 349],"Peptide exchange (MHC class I binding score, peptide exchange yield)",″++++″ (≥75% = ++++)
347 (SLFKHDPAAWEA; listed as Homo sapiens) [compound 347],"Peptide exchange (MHC class I binding score, peptide exchange yield)",″++++″ (≥75% = ++++)
19 (FMVDNEAIYDI; listed as Homo sapiens) [compound 19],"Peptide exchange (MHC class I binding score, peptide exchange yield)",″++++″ (≥75% = ++++)
608 (SLLSVSHAL; listed as Homo sapiens) [compound 608],"Peptide exchange (MHC class I binding score, peptide exchange yield)",″+++″ (≥50% = +++)
271 (LVYPLELYPA; listed as Homo sapiens) [compound 271],"Peptide exchange (MHC class I binding score, peptide exchange yield)",″+++″ (≥50% = +++)
261 (YVLEFLEEI; listed as Homo sapiens) [compound 261],"Peptide exchange (MHC class I binding score, peptide exchange yield)",″++″ (≥20% = ++)
124 (ALYETELADA; listed as Homo sapiens) [compound 124],"Peptide exchange (MHC class I binding score, peptide exchange yield)",″++″ (≥20% = ++)
244 (SLFGGTEITI; listed as Homo sapiens) [compound 244],"Peptide exchange (MHC class I binding score, peptide exchange yield)",″+++″ (≥50% = +++)
255 (VLASYNLTV; listed as Homo sapiens) [compound 255],"Peptide exchange (MHC class I binding score, peptide exchange yield)",″+++″ (≥50% = +++)
527 (FLLEPGNLEV; listed as Homo sapiens) [compound 527],"Peptide exchange (MHC class I binding score, peptide exchange yield)",″++++″ (≥75% = ++++)
297 (VLADIELAQA; listed as Homo sapiens) [compound 297],"Peptide exchange (MHC class I binding score, peptide exchange yield)",″+++″ (≥50% = +++)
15 (VLLTFKIFL; listed as Homo sapiens) [compound 15],"Peptide exchange (MHC class I binding score, peptide exchange yield)",″++″ (≥20% = ++)
184 (YLMDINGKMWL; listed as Homo sapiens) [compound 184],"Peptide exchange (MHC class I binding score, peptide exchange yield)",″+++″ (≥50% = +++)
295 (VLDRESPNV; listed as Homo sapiens) [compound 295],"Peptide exchange (MHC class I binding score, peptide exchange yield)",″+++″ (≥50% = +++)
544 (LLWDVPAPSL; listed as Homo sapiens) [compound 544],"Peptide exchange (MHC class I binding score, peptide exchange yield)",″+++″ (≥50% = +++)
562 (YLEELPEKLKL; listed as Homo sapiens) [compound 562],"Peptide exchange (MHC class I binding score, peptide exchange yield)",″+++″ (≥50% = +++)
272 (ALGNTVPAV; listed as Homo sapiens) [compound 272],"Peptide exchange (MHC class I binding score, peptide exchange yield)",″+++″ (≥50% = +++)
134 (YLQELIFSV; listed as Homo sapiens) [compound 134],"Peptide exchange (MHC class I binding score, peptide exchange yield)",″+++″ (≥50% = +++)
353 (YLFEMDSSL; listed as Homo sapiens) [compound 353],"Peptide exchange (MHC class I binding score, peptide exchange yield)",″++″ (≥20% = ++)
216 (NLWEDPYYL; listed as Homo sapiens) [compound 216],"Peptide exchange (MHC class I binding score, peptide exchange yield)",″+++″ (≥50% = +++)
132 (LLVEQPPLAGV; listed as Homo sapiens) [compound 132],"Peptide exchange (MHC class I binding score, peptide exchange yield)",″+++″ (≥50% = +++)
137 (TLVLTLPTV; listed as Homo sapiens) [compound 137],"Peptide exchange (MHC class I binding score, peptide exchange yield)",″++++″ (≥75% = ++++)
572 (ALADLIEKELSV; listed as Homo sapiens) [compound 572],"Peptide exchange (MHC class I binding score, peptide exchange yield)",″+++″ (≥50% = +++)
232 (ALLEAQDVELYL; listed as Homo sapiens) [compound 232],"Peptide exchange (MHC class I binding score, peptide exchange yield)",″++″ (≥20% = ++)
467 (FLAKDFNFL; listed as Homo sapiens) [compound 467],"Peptide exchange (MHC class I binding score, peptide exchange yield)",″+++″ (≥50% = +++)
120 (ALLGIPLTLV; listed as Homo sapiens) [compound 120],"Peptide exchange (MHC class I binding score, peptide exchange yield)",″+++″ (≥50% = +++)
464 (ALNDCIYSV; listed as Homo sapiens) [compound 464],"Peptide exchange (MHC class I binding score, peptide exchange yield)",″+++″ (≥50% = +++)
55 (SLLDLETLSL; listed as Homo sapiens) [compound 55],"Peptide exchange (MHC class I binding score, peptide exchange yield)",″++++″ (≥75% = ++++)
592 (RLLSAAENFL; listed as Homo sapiens) [compound 592],"Peptide exchange (MHC class I binding score, peptide exchange yield)",″+++″ (≥50% = +++)
473 (AMATESILHFA; listed as Homo sapiens) [compound 473],"Peptide exchange (MHC class I binding score, peptide exchange yield)",″+++″ (≥50% = +++)
73 (NIFDLQIYV; listed as Homo sapiens) [compound 73],"Peptide exchange (MHC class I binding score, peptide exchange yield)",″+++″ (≥50% = +++)
39 (SVAPNLPAV; listed as Homo sapiens) [compound 39],"Peptide exchange (MHC class I binding score, peptide exchange yield)",″+++″ (≥50% = +++)
441 (ALLENPKMEL; listed as Homo sapiens) [compound 441],"Peptide exchange (MHC class I binding score, peptide exchange yield)",″+++″ (≥50% = +++)
10 (FLATFPLAAV; listed as Homo sapiens) [compound 10],"Peptide exchange (MHC class I binding score, peptide exchange yield)",″++++″ (≥75% = ++++)
498 (KLWTGGLDNTV; listed as Homo sapiens) [compound 498],"Peptide exchange (MHC class I binding score, peptide exchange yield)",″+++″ (≥50% = +++)
231 (FLSPQQPPLLL; listed as Homo sapiens) [compound 231],"Peptide exchange (MHC class I binding score, peptide exchange yield)",″++″ (≥20% = ++)
172 (VLYSYTIITV; listed as Homo sapiens) [compound 172],"Peptide exchange (MHC class I binding score, peptide exchange yield)",″++″ (≥20% = ++)
617 (ALMYESEKVGV; listed as Homo sapiens) [compound 617],"Peptide exchange (MHC class I binding score, peptide exchange yield)",″+++″ (≥50% = +++)
18 (YLVAKLVEV; listed as Homo sapiens) [compound 18],"Peptide exchange (MHC class I binding score, peptide exchange yield)",″++″ (≥20% = ++)
549 (AMLENASDIKL; listed as Homo sapiens) [compound 549],"Peptide exchange (MHC class I binding score, peptide exchange yield)",″+++″ (≥50% = +++)
274 (SLLFSLFEA; listed as Homo sapiens) [compound 274],"Peptide exchange (MHC class I binding score, peptide exchange yield)",″++″ (≥20% = ++)
98 (LIIDQADIYL; listed as Homo sapiens) [compound 98],"Peptide exchange (MHC class I binding score, peptide exchange yield)",″+++″ (≥50% = +++)
387 (ALFQATAEV; listed as Homo sapiens) [compound 387],"Peptide exchange (MHC class I binding score, peptide exchange yield)",″++++″ (≥75% = ++++)
214 (FLLDLDPLLL; listed as Homo sapiens) [compound 214],"Peptide exchange (MHC class I binding score, peptide exchange yield)",″+++″ (≥50% = +++)
114 (SLVGEPILQNV; listed as Homo sapiens) [compound 114],"Peptide exchange (MHC class I binding score, peptide exchange yield)",″++″ (≥20% = ++)
135 (ALSEVDFQL; listed as Homo sapiens) [compound 135],"Peptide exchange (MHC class I binding score, peptide exchange yield)",″+++″ (≥50% = +++)
571 (LLLTTIPQI; listed as Homo sapiens) [compound 571],"Peptide exchange (MHC class I binding score, peptide exchange yield)",″+++″ (≥50% = +++)
517 (LLMPIPEGLTL; listed as Homo sapiens) [compound 517],"Peptide exchange (MHC class I binding score, peptide exchange yield)",″+++″ (≥50% = +++)
